Consider one molecule from article PMC3140568 (Journal of immunology (Baltimore, Md. : 1950), 2011).

Square brackets hold non-standard residues; d marks the D form. Ends that are not written are not given here. pS = N[C@@H](COP(=O)(O)O)C(=O)O

This test addresses T1, TNF receptor-associated death domain protein, wild type (human, UniProt Q15628 1-312).
T1 sequence (looked up): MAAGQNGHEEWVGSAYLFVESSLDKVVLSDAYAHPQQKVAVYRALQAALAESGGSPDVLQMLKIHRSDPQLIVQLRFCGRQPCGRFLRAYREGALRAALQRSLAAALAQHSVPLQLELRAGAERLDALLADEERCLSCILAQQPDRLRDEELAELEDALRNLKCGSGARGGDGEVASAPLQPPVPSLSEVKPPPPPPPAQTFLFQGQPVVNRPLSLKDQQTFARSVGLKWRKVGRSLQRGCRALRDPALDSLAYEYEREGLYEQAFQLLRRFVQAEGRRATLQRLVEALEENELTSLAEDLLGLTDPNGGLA
The test is described as follows: peptide competition on an immuno-purified complex.

For VRRLGL[pS]DHEIDRLELQNGRC (peptide, UniProt P19438 375-395, looked up) [phosphorylated peptide containing the S381XXE motif of TNFR1 (position 375–395)], the binding result is “binds”.
